Laboratory results as given in patent US20220048967A1 (published 2022).
Numbering of substitutions follows the chain as printed. Numbered stars: 1 amine (or outer) side, 2 acyl side, 3 side chain; on linkers, the order of the positions; unused ones are H or OH. Square brackets hold non-standard residues; d marks the D form. Side chains are listed from the residue outwards. Ends that are not written are not given here. * marks the point of attachment. C20 diacid = O=C(O)CCCCCCCCCCCCCCCCCCC(=O)*; γGlu = O=C(O)[C@H](CCC(=O)[*:2])N[*:1]; αMeL = CC(C)C[C@](C)(N)C(=O)O; Dab = NCC[C@H](N)C(=O)O; Dap = NC[C@H](N)C(=O)O; AEEA = NCCOCCOCC(=O)O; Aib = CC(C)(N)C(=O)O

T1: human gastric inhibitory peptide receptor (GIPR) (human, UniProt P48546 22-466)
T1 sequence (looked up): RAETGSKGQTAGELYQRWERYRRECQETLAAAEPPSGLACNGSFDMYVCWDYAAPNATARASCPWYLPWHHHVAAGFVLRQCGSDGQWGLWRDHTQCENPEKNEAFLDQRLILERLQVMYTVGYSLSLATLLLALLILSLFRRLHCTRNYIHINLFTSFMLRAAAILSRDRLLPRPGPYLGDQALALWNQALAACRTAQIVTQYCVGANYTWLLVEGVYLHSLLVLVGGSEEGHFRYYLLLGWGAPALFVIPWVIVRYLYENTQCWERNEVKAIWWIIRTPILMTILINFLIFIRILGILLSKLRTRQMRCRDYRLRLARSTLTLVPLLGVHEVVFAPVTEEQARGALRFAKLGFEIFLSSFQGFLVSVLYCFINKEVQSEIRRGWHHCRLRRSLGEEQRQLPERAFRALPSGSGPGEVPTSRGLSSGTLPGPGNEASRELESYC

B1: Example 351 (peptide)
peptide: [dY][Aib]EGTFTSDYSI[αMeL]LD[Dap]K([AEEA-AEEA-γGlu-C20 diacid])AQ[Aib]EFIEYLIAGGPSSGAPPPS-NH2
modifications: N-terminus assumed
SMILES: CC[C@H](C)[C@H](NC(=O)[C@H](CC(C)C)NC(=O)[C@H](Cc1ccc(O)cc1)NC(=O)[C@H](CCC(=O)O)NC(=O)[C@@H](NC(=O)[C@H](Cc1ccccc1)NC(=O)[C@H](CCC(=O)O)NC(=O)C(C)(C)NC(=O)[C@H](CCC(N)=O)NC(=O)[C@H](C)NC(=O)[C@H](CCCCNC(=O)COCCOCCNC(=O)COCCOCCNC(=O)CC[C@H](NC(=O)CCCCCCCCCCCCCCCCCCC(=O)O)C(=O)O)NC(=O)[C@H](CN)NC(=O)[C@H](CC(=O)O)NC(=O)[C@H](CC(C)C)NC(=O)[C@](C)(CC(C)C)NC(=O)[C@@H](NC(=O)[C@H](CO)NC(=O)[C@H](Cc1ccc(O)cc1)NC(=O)[C@H](CC(=O)O)NC(=O)[C@H](CO)NC(=O)[C@@H](NC(=O)[C@H](Cc1ccccc1)NC(=O)[C@@H](NC(=O)CNC(=O)[C@H](CCC(=O)O)NC(=O)C(C)(C)NC(=O)[C@H](N)Cc1ccc(O)cc1)[C@@H](C)O)[C@@H](C)O)[C@@H](C)CC)[C@@H](C)CC)C(=O)N[C@@H](C)C(=O)NCC(=O)NCC(=O)N1CCC[C@H]1C(=O)N[C@@H](CO)C(=O)N[C@@H](CO)C(=O)NCC(=O)N[C@@H](C)C(=O)N1CCC[C@H]1C(=O)N1CCC[C@H]1C(=O)N1CCC[C@H]1C(=O)N[C@@H](CO)C(N)=O
B2: Example 348 (peptide)
peptide: [dY][Aib]EGTFTSDYSI[αMeL]LD[Dap]K([AEEA-AEEA-γGlu-C20 diacid])AQ[Aib]AFIEYLIAGGPSSGAPPPS-NH2
modifications: N-terminus assumed
SMILES: CC[C@H](C)[C@H](NC(=O)[C@H](CC(C)C)NC(=O)[C@H](Cc1ccc(O)cc1)NC(=O)[C@H](CCC(=O)O)NC(=O)[C@@H](NC(=O)[C@H](Cc1ccccc1)NC(=O)[C@H](C)NC(=O)C(C)(C)NC(=O)[C@H](CCC(N)=O)NC(=O)[C@H](C)NC(=O)[C@H](CCCCNC(=O)COCCOCCNC(=O)COCCOCCNC(=O)CC[C@H](NC(=O)CCCCCCCCCCCCCCCCCCC(=O)O)C(=O)O)NC(=O)[C@H](CN)NC(=O)[C@H](CC(=O)O)NC(=O)[C@H](CC(C)C)NC(=O)[C@](C)(CC(C)C)NC(=O)[C@@H](NC(=O)[C@H](CO)NC(=O)[C@H](Cc1ccc(O)cc1)NC(=O)[C@H](CC(=O)O)NC(=O)[C@H](CO)NC(=O)[C@@H](NC(=O)[C@H](Cc1ccccc1)NC(=O)[C@@H](NC(=O)CNC(=O)[C@H](CCC(=O)O)NC(=O)C(C)(C)NC(=O)[C@H](N)Cc1ccc(O)cc1)[C@@H](C)O)[C@@H](C)O)[C@@H](C)CC)[C@@H](C)CC)C(=O)N[C@@H](C)C(=O)NCC(=O)NCC(=O)N1CCC[C@H]1C(=O)N[C@@H](CO)C(=O)N[C@@H](CO)C(=O)NCC(=O)N[C@@H](C)C(=O)N1CCC[C@H]1C(=O)N1CCC[C@H]1C(=O)N1CCC[C@H]1C(=O)N[C@@H](CO)C(N)=O
B3: Example 339 (peptide)
peptide: YXEGTFTSDYSIXLDKKAQXEFIEYLIAGGPSSGAPPPS
modifications: not fully specified; Aib2, αMeL13, (2-[2-(2-Amino-ethoxy)-ethoxy]-acetyl)-(γ-Glu)-CO-(CH2)18-CO2H on K17, Aib20, C-terminal NH2
B4: Example 355 (peptide)
peptide: B3 peptide with Y1X, K16X, E24X, A28E
modifications: D-Tyr1, Aib2, αMeL13, Orn16, (2-[2-(2-Amino-ethoxy)-ethoxy]-acetyl)2-(γ-Glu)-CO-(CH2)18-CO2H on K17, Aib20, D-Glu24, C-terminal NH2
B5: Example 343 (peptide)
peptide: B3 peptide with K16E, E21A, E24X
modifications: not fully specified; Aib2, αMeL13, (2-[2-(2-Amino-ethoxy)-ethoxy]-acetyl)2-(γ-Glu)-CO-(CH2)18-CO2H on K17, Aib20, D-Glu24, C-terminal NH2
B6: Example 341 (peptide)
peptide: B3 peptide with Y1X, K16E, E21A
modifications: not fully specified; D-Tyr1, Aib2, αMeL13, (2-[2-(2-Amino-ethoxy)-ethoxy]-acetyl)2-(γ-Glu)-CO-(CH2)18-CO2H on K17, Aib20, C-terminal NH2
B7: Example 340 (peptide)
peptide: B3 peptide with Y1X, E21A
modifications: not fully specified; D-Tyr1, Aib2, αMeL13, (2-[2-(2-Amino-ethoxy)-ethoxy]-acetyl)2-(γ-Glu)-CO-(CH2)18-CO2H on K17, Aib20, C-terminal NH2
B8: Example 346 (peptide)
peptide: B3 peptide with Y1X, K16X, E21A
modifications: D-Tyr1, Aib2, αMeL13, Orn16, (2-[2-(2-Amino-ethoxy)-ethoxy]-acetyl)2-(γ-Glu)-CO-(CH2)18-CO2H on K17, Aib20, C-terminal NH2
B9: Example 349 (peptide)
peptide: B3 peptide with Y1X, K16X
modifications: D-Tyr1, Aib2, αMeL13, Orn16, (2-[2-(2-Amino-ethoxy)-ethoxy]-acetyl)2-(γ-Glu)-CO-(CH2)18-CO2H on K17, Aib20, C-terminal NH2
B10: Example 354 (peptide)
peptide: B3 peptide with Y1X, K16X, E24X
modifications: D-Tyr1, Aib2, αMeL13, Orn16, (2-[2-(2-Amino-ethoxy)-ethoxy]-acetyl)2-(γ-Glu)-CO-(CH2)18-CO2H on K17, Aib20, D-Glu24, C-terminal NH2
B11: Example 353 (peptide)
peptide: B3 peptide with Y1X, E24X, A28E
modifications: D-Tyr1, Aib2, αMeL13, (2-[2-(2-Amino-ethoxy)-ethoxy]-acetyl)2-(γ-Glu)-CO-(CH2)18-CO2H on K17, Aib20, D-Glu24, C-terminal NH2
B12: Example 344 (peptide)
peptide: B3 peptide with K16E, E21D
modifications: Aib2, αMeL13, (2-[2-(2-Amino-ethoxy)-ethoxy]-acetyl)2-(γ-Glu)-CO-(CH2)18-CO2H on K17, Aib20, C-terminal NH2
B13: Example 352 (peptide)
peptide: B3 peptide with Y1X, E21A, E24X
modifications: D-Tyr1, Aib2, αMeL13, (2-[2-(2-Amino-ethoxy)-ethoxy]-acetyl)2-(γ-Glu)-CO-(CH2)18-CO2H on K17, Aib20, D-Glu24, C-terminal NH2
B14: Example 342 (peptide)
peptide: B3 peptide with Y1X, K16E
modifications: not fully specified; D-Tyr1, Aib2, αMeL13, (2-[2-(2-Amino-ethoxy)-ethoxy]-acetyl)2-(γ-Glu)-CO-(CH2)18-CO2H on K17, Aib20, C-terminal NH2
B15: Example 350 (peptide)
peptide: [dY][Aib]EGTFTSDYSI[αMeL]LD[Dab]K([AEEA-AEEA-γGlu-C20 diacid])AQ[Aib]EFIEYLIAGGPSSGAPPPS-NH2
modifications: N-terminus assumed
SMILES: CC[C@H](C)[C@H](NC(=O)[C@H](CC(C)C)NC(=O)[C@H](Cc1ccc(O)cc1)NC(=O)[C@H](CCC(=O)O)NC(=O)[C@@H](NC(=O)[C@H](Cc1ccccc1)NC(=O)[C@H](CCC(=O)O)NC(=O)C(C)(C)NC(=O)[C@H](CCC(N)=O)NC(=O)[C@H](C)NC(=O)[C@H](CCCCNC(=O)COCCOCCNC(=O)COCCOCCNC(=O)CC[C@H](NC(=O)CCCCCCCCCCCCCCCCCCC(=O)O)C(=O)O)NC(=O)[C@H](CCN)NC(=O)[C@H](CC(=O)O)NC(=O)[C@H](CC(C)C)NC(=O)[C@](C)(CC(C)C)NC(=O)[C@@H](NC(=O)[C@H](CO)NC(=O)[C@H](Cc1ccc(O)cc1)NC(=O)[C@H](CC(=O)O)NC(=O)[C@H](CO)NC(=O)[C@@H](NC(=O)[C@H](Cc1ccccc1)NC(=O)[C@@H](NC(=O)CNC(=O)[C@H](CCC(=O)O)NC(=O)C(C)(C)NC(=O)[C@H](N)Cc1ccc(O)cc1)[C@@H](C)O)[C@@H](C)O)[C@@H](C)CC)[C@@H](C)CC)C(=O)N[C@@H](C)C(=O)NCC(=O)NCC(=O)N1CCC[C@H]1C(=O)N[C@@H](CO)C(=O)N[C@@H](CO)C(=O)NCC(=O)N[C@@H](C)C(=O)N1CCC[C@H]1C(=O)N1CCC[C@H]1C(=O)N1CCC[C@H]1C(=O)N[C@@H](CO)C(N)=O
B16: Example 347 (peptide)
peptide: [dY][Aib]EGTFTSDYSI[αMeL]LD[Dab]K([AEEA-AEEA-γGlu-C20 diacid])AQ[Aib]AFIEYLIAGGPSSGAPPPS-NH2
modifications: N-terminus assumed
SMILES: CC[C@H](C)[C@H](NC(=O)[C@H](CC(C)C)NC(=O)[C@H](Cc1ccc(O)cc1)NC(=O)[C@H](CCC(=O)O)NC(=O)[C@@H](NC(=O)[C@H](Cc1ccccc1)NC(=O)[C@H](C)NC(=O)C(C)(C)NC(=O)[C@H](CCC(N)=O)NC(=O)[C@H](C)NC(=O)[C@H](CCCCNC(=O)COCCOCCNC(=O)COCCOCCNC(=O)CC[C@H](NC(=O)CCCCCCCCCCCCCCCCCCC(=O)O)C(=O)O)NC(=O)[C@H](CCN)NC(=O)[C@H](CC(=O)O)NC(=O)[C@H](CC(C)C)NC(=O)[C@](C)(CC(C)C)NC(=O)[C@@H](NC(=O)[C@H](CO)NC(=O)[C@H](Cc1ccc(O)cc1)NC(=O)[C@H](CC(=O)O)NC(=O)[C@H](CO)NC(=O)[C@@H](NC(=O)[C@H](Cc1ccccc1)NC(=O)[C@@H](NC(=O)CNC(=O)[C@H](CCC(=O)O)NC(=O)C(C)(C)NC(=O)[C@H](N)Cc1ccc(O)cc1)[C@@H](C)O)[C@@H](C)O)[C@@H](C)CC)[C@@H](C)CC)C(=O)N[C@@H](C)C(=O)NCC(=O)NCC(=O)N1CCC[C@H]1C(=O)N[C@@H](CO)C(=O)N[C@@H](CO)C(=O)NCC(=O)N[C@@H](C)C(=O)N1CCC[C@H]1C(=O)N1CCC[C@H]1C(=O)N1CCC[C@H]1C(=O)N[C@@H](CO)C(N)=O

Target: T1, human gastric inhibitory peptide …
Experiment: cell-based or functional assay

Binder | hGIPR cAMP EC50 ratio | hGIPR cAMP Rel EC50 [nM]
B1 | 0.47 | 0.298
B2 | 0.373 | 0.193
B3 | 3.18 | 0.0219
B4 | 0.111 | 0.685
B5 | 1.84 | 0.0422
B6 | 0.213 | 0.238
B7 | 0.852 | 0.0823
B8 | 0.604 | 0.144
B9 | 0.756 | 0.117
B10 | 0.441 | 0.233
B11 | 0.145 | 0.497
B12 | 1.79 | 0.0433
B13 | 0.815 | 0.127
B14 | 0.32 | 0.159
B15 | 0.741 | 0.189
B16 | 0.872 | 0.0827

Target: human GLP-1 receptor (GLP-1R) (human, UniProt P43220 24-463)
Experiment: cell-based or functional assay

Binder | hGLP1R cAMP EC50 ratio | hGLP1R cAMP Rel EC50 [nM]
B1 | 0.22 | 0.149
B2 | 0.224 | 0.113
B3 | 0.574 | 0.0986
B4 | 0.0285 | 0.896
B5 | 0.662 | 0.124
B6 | 0.0674 | 0.373
B7 | 0.183 | 0.252
B8 | 0.21 | 0.128
B9 | 0.214 | 0.121
B10 | 0.0517 | 0.54
B11 | 0.0231 | 1.09
B12 | 1.86 | 0.044
B13 | 0.201 | 0.142
B14 | 0.198 | 0.127
B15 | 0.307 | 0.107
B16 | 0.245 | 0.102
